# Measurements as given in the supplement of paper PMC5998384.
# Key:
# HeLa Kyoto [1] = assay: solubility change mitosis vs G1/S (difference of NP-40 vs SDS log2 ratios) (log2 ratio difference); higher = more soluble in mitosis
# HeLa Kyoto [2] = assay: solubility in G1/S (NP-40 vs SDS abundance) (log2 ratio); higher = more soluble; settings: cell cycle stage: G1/S
# HeLa Kyoto [3] = assay: melting temperature (median over replicates), in situ; higher = more thermally stable
# HeLa Kyoto [4] = assay: thermal stability score vs G1/S (z-score of summed log2 fold changes over temperatures); higher = more thermally stable than in G1/S
# [5] = cell cycle stage: early G1 (4.5 h after nocodazole release)
# 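Wherever melting temperature (median over replicates), in situ is given: HeLa Kyoto cells synchronized by double thymidine or nocodazole block, proteins quantified by TMT10plex mass spectrometry, three independent biological replicates.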
# 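Wherever solubility change mitosis vs G1/S (difference of NP-40 vs SDS log2 ratios) is given: synchronized HeLa Kyoto cells (double thymidine block for G1/S, nocodazole release for mitosis), protein amounts in NP-40 versus SDS lysates quantified by mass spectrometry, three biological replicates.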
# 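Wherever solubility in G1/S (NP-40 vs SDS abundance) is given: HeLa Kyoto cells arrested at G1/S by double thymidine block, proteins quantified by TMT10plex mass spectrometry in mild NP-40 versus SDS extracts, three biological replicates.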
# 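Wherever thermal stability score vs G1/S (z-score of summed log2 fold changes over temperatures) is given: synchronized HeLa Kyoto cells, proteins quantified by TMT10plex mass spectrometry, three biological replicates, mitosis taken 0.5 h after nocodazole release, G1/S directly after double thymidine block.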
Sequence,solubility change mitosis (log2) (HeLa Kyoto [1]),solubility in G1/S (log2) (HeLa Kyoto [2]),melting temperature (HeLa Kyoto [3]; cell cycle stage: G1/S),melting temperature (HeLa Kyoto [3]; cell cycle stage: mitosis),thermal stability score (HeLa Kyoto [4]; [5]),thermal stability score (HeLa Kyoto [4]; cell cycle stage: mitosis)
MTELRQRVAHEPVAPPEDKESESEAKVDGETASDSESRAESAPLPVSADDTPEVLNRALSNLSSRWKNWWVRGILTLAMIAFFFIIIYLGPMVLMIIVMCVQIKCFHEIITIGYNVYHSYDLPWFRTLSWYFLLCVNYFFYGETVTDYFFTLVQREEPLRILSKYHRFISFTLYLIGFCMFVLSLVKKHYRLQFYMFGWTHVTLLIVVTQSHLVIHNLFEGMIWFIVPISCVICNDIMAYMFGFFFGRTPLIKLSPKKTWEGFIGGFFATVVFGLLLSYVMSGYRCFVCPVEYNNDTNSFTVDCEPSDLFRLQEYNIPGVIQSVIGWKTVRMYPFQIHSIALSTFASLIGPFGGFFASGFKRAFKIKDFANTIPGHGGIMDRFDCQYLMATFVNVYIASFIRGPNPSKLIQQFLTLRPDQQLHIFNTLRSHLIDKGMLTSTTEDE [CDS2],-0.168,-0.102,57.3 °C,56 °C,-3.65,-6.01
MTGRAMDPLPAAAVGAAAEAEADEEADPPASDLPTPQAIEPQAIVQQVPAPSRMQMPQGNPLLLSHTLQELLARDTVQVELIPEKKGLFLKHVEYEVSSQRFKSSVYRRYNDFVVFQEMLLHKFPYRMVPALPPKRMLGADREFIEARRRALKRFVNLVARHPLFSEDVVLKLFLSFSGSDVQNKLKESAQCVGDEFLNCKLATRAKDFLPADIQAQFAISRELIRNIYNSFHKLRDRAERIASRAIDNAADLLIFGKELSAIGSDTTPLPSWAALNSSTWGSLKQALKGLSVEFALLADKAAQQGKQEENDVVEKLNLFLDLLQSYKDLCERHEKGVLHKHQRALHKYSLMKRQMMSATAQNREPESVEQLESRIVEQENAIQTMELRNYFSLYCLHQETQLIHVYLPLTSHILRAFVNSQIQGHKEMSKVWNDLRPKLSCLFAGPHSTLTPPCSPPEDGLCPH [SNX8],-0.153,0.249,54 °C,55.7 °C,-2.07,-2.85
MTKKRKRQHDFQKVKLKVGKKKPKLQNATPTNFKTKTIHLPEQLKEDGTLPTNNRKLNIKDLLSQMHHYNAGVKQSALLGLKDLLSQYPFIIDAHLSNILSEVTAVFTDKDANVRLAAVQLLQFLAPKIRAEQISPFFPLVSAHLSSAMTHITEGIQEDSLKVLDILLEQYPALITGRSSILLKNFVELISHQQLSKGLINRDRSQSWILSVNPNRRLTSQQWRLKVLVRLSKFLQALADGSSRLRESEGLQEQKENPHATSNSIFINWKEHANDQQHIQVYENGGSQPNVSSQFRLRYLVGGLSGVDEGLSSTENLKGFIEIIIPLLIECWVEAVPPQLATPVGNGIEREPLQVMQQVLNIISLLWKLSKQQDETHKLESWLRKNYLIDFKHHFMSRFPYVLKEITKHKRKEPNKSIKHCTVLSNNIDHLLLNLTLSDIMVSLANASTLQKDCSWIEMIRKFVTETLEDGSRLNSKQLNRLLGVSWRLMQIQPNREDTETLIKAVYTLYQQRGLILPVRTLLLKFFSKIYQTEELRSCRFRYRSKVLSRWLAGLPLQLAHLGSRNPELSTQLIDIIHTAAARANKELLKSLQATALRIYDPQEGAVVVLPADSQQRLVQLVYFLPSLPADLLSRLSRCCIMGRLSSSLAAMLIGILHMRSSFSGWKYSAKDWLMSDVDYFSFLFSTLTGFSKEELTWLQSLRGVPHVIQTQLSPVLLYLTDLDQFLHHWDVTEAVFHSLLVIPARSQNFDILQSAISKHLVGLTVIPDSTAGCVFGVICKLLDHTCVVSETLLPFLASCCYSLLYFLLTIEKGEAEHLRKRDKLWGVCVSILALLPRVLRLMLQSLRVNRVGPEELPVVGQLLRLLLQHAPLRTHMLTNAILVQQIIKNITTLKSGSVQEQWLTDLHYCFNVYITGHPQGPSALATVY [TEX10],0.921,-1.92,54.3 °C,52 °C,-1.74,-4.37
MTKREAEELIEIEIDGTEKAECTEESIVEQTYAPAECVSQAIDINEPIGNLKKLLEPRLQCSLDAHEICLQDIQLDPERSLFDQGVKTDGTVQLSVQVISYQGIEPKLNILEIVKPADTVEVVIDPDAHHAESEAHLVEEAQVITLDGTKHITTISDETSEQVTRWAAALEGYRKEQERLGIPYDPIQWSTDQVLHWVVWVMKEFSMTDIDLTTLNISGRELCSLNQEDFFQRVPRGEILWSHLELLRKYVLASQEQQMNEIVTIDQPVQIIPASVQSATPTTIKVINSSAKAAKVQRAPRISGEDRSSPGNRTGNNGQIQLWQFLLELLTDKDARDCISWVGDEGEFKLNQPELVAQKWGQRKNKPTMNYEKLSRALRYYYDGDMICKVQGKRFVYKFVCDLKTLIGYSAAELNRLVTECEQKKLAKMQLHGIAQPVTAVALATASLQTEKDN [GABPA],-0.178,0.0182,48 °C,49.9 °C,0.986,1.79
MTLDVGPEDELPDWAAAKEFYQKYDPKDVIGRGVSSVVRRCVHRATGHEFAVKIMEVTAERLSPEQLEEVREATRRETHILRQVAGHPHIITLIDSYESSSFMFLVFDLMRKGELFDYLTEKVALSEKETRSIMRSLLEAVSFLHANNIVHRDLKPENILLDDNMQIRLSDFGFSCHLEPGEKLRELCGTPGYLAPEILKCSMDETHPGYGKEVDLWACGVILFTLLAGSPPFWHRRQILMLRMIMEGQYQFSSPEWDDRSSTVKDLISRLLQVDPEARLTAEQALQHPFFERCEGSQPWNLTPRQRFRVAVWTVLAAGRVALSTHRVRPLTKNALLRDPYALRSVRHLIDNCAFRLYGHWVKKGEQQNRAALFQHRPPGPFPIMGPEEEGDSAAITEDEAVLVLG [PHKG2],-0.298,-0.0283,50.4 °C,50.7 °C,-0.266,0.0815
MTLQWAAVATFLYAEIGLILIFCLPFIPPQRWQKIFSFNVWGKIATFWNKAFLTIIILLIVLFLDAVREVRKYSSVHTIEKSSTSRPDAYEHTQMKLFRSQRNLYISGFSLFFWLVLRRLVTLITQLAKELSNKGVLKTQAENTNKAAKKFMEENEKLKRILKSHGKDEECVLEAENKKLVEDQEKLKTELRKTSDALSKAQNDVMEMKMQSERLSKEYDQLLKEHSELQDRLERGNKKRL [BCAP29],-0.00377,-0.242,55.3 °C,52.6 °C,-4.11,-5.19
MTPLCPRPALCYHFLTSLLRSAMQNARGARQRAEAAVLSGPGPPLGRAAQHGIPRPLSSAGRLSQGCRGASTVGAAGWKGELPKAGGSPAPGPETPAISPSKRARPAEVGGMQLRFARLSEHATAPTRGSARAAGYDLYSAYDYTIPPMEKAVVKTDIQIALPSGCYGRVAPRSGLAAKHFIDVGAGVIDEDYRGNVGVVLFNFGKEKFEVKKGDRIAQLICERIFYPEIEEVQALDDTERGSGGFGSTGKN [DUT],-0.0703,0.483,53.2 °C,53.5 °C,0.243,-0.204
MTPPPPPPPPPGPDPAADPAADPCPWPGSLVVLFGATAGALGRDLGSDETDLILLVWQVVEPRSRQVGTLHKSLVRAEAAALSTQCREASGLSADSLARAEPLDKVLQQFSQLVNGDVALLGGGPYMLCTDGQQLLRQVLHPEASRKNLVLPDMFFSFYDLRREFHMQHPSTCPARDLTVATMAQGLGLETDATEDDFGVWEVKTMVAVILHLLKEPSSQLFSKPEVIKQKYETGPCSDSTVPCPYSSKADVVDSETVVRARGLPWQSSDQDVARFFKGLNVARGGVALCLNAQGRRNGEALIRFVDSEQRDLALQRHKHHMGVRYIEVYKATGEEFVKIAGGTSLEVARFLSREDQVILRLRGLPFSAGPTDVLGFLGPECPVTGGTEGLLFVRHPDGRPTGDAFALFACEELAQAALRRHKGMLGKRYIELFRSTAAEVQQVLNRYASGPLLPTLTAPLLPIPFPLAPGTGRDCVRLRGLPYTATIEDILSFLGEAAADIRPHGVHMVLNQQGRPSGDAFIQMTSAERALAAAQRCHKKVMKERYVEVVPCSTEEMSRVLMGGTLGRSGMSPPPCKLPCLSPPTYTTFQATPTLIPTETAALYPSSALLPAARVPAAPTPVAYYPGPATQLYLNYTAYYPSPPVSPTTVGYLTTPTAALASAPTSVLSQSGALVRMQGVPYTAGMKDLLSVFQAYQLPADDYTSLMPVGDPPRTVLQAPKEWVCL [ESRP2],0.0705,0.0652,45.2 °C,47.7 °C,1.55,2.39
